What was measured:
[1] = molecular target: human D-dimer (human) (UniProt P02671); assay: competitive inhibition ELISA: HRP-B4 pre-incubated with soluble antigen, then added to a D-dimer-coated plate
[2] = molecular target: D monomer (UniProt P02671); assay: as above

Kd [1]: 0.98 nM
reactivity [2]: 5 µM
Substance: monoclonal antibody B4
